Patent US20110076298A1, “Soluble stabilized trimeric hiv env proteins and uses thereof” (priority 2006, published 2011)

Experiments:
[1] = Tween 20 aggregate conversion/collapse experiments, BN-PAGE; type: physicochemical; settings: 0° C., room temperature, 37° C.
Description: FIGS. 6A-6D: Tween® 20 conversion experiments. (A) Dose response: Purified KNH1144 SOSIP R6 gp140 trimer was incubated with 0 (no detergent control), or 0.1, 0.05, 0.01, 0.001, or 0.0001% Tween® 20 and analyzed by BN-PAGE and Coomassie G-250 stain. Arrows point to HMW aggregate and trimer species. M stands for the 669 k thyroglobulin and 440 k ferritin molecular weight protein standards. (B) Time course: Purified KNH1144 SOSIP R6 gp140 trimer was incubated with Tween® 20 for 5 min (left panel) or 10 min (right panel). Trimer was either untreated (−lane) or Tween® 20 treated (+lane). Arrows indicate trimer and HMW aggregate bands. […]
Tween® 20 Dose effect: 1 ug of purified KNH1144 SOSIP R6 trimer was incubated with varying concentrations of Tween® 20 (polyoxyethylene sorbitan monolaurate) ranging from 0 to 0.0001% (v/v) and incubated for 1 hour at room temperature. Following incubation, samples were analyzed by BN-PAGE as described above. […]
Temperature dependance on Tween® 20 effect: To determine if temperature affected the ability of Tween® 20 to recover trimers from aggregates (i.e., collapse aggregate into trimer), 1 ug of purified KNH1144 SOSIP R6 trimer was incubated with Tween® 20 to a final concentration of 0.05% (v/v) at 0° C. […] Following the incubation, samples were analyzed by BN-PAGE and Coomassie staining. […]

[2] = test system: 2G12, b6, b12, CD4-IgG2, HIVIg; assay: Lectin ELISA antigenicity, untreated vs Tween 20 treated; type: binding; settings: 0.05% Tween 20, lectin ELISA
Source text: FIG. 8: Effect of Tween® 20 treatment on KNH1144 SOSIP R6 HMW aggregate antigenicity. Lectin ELISA of untreated and Tween® 20 treated KNH1144 SOSIP R6 HMW aggregate: Untreated or Tween® 20-treated HMW aggregate were bound to GNA lectin coated ELISA plates and probed with 2G12, b6, b12, CD4-IgG2, and HIVIg. The panels represent their respective binding curves. Antibody affinity to the untreated HMW aggregate is represented by the curve having diamond lines. Affinity to the Tween® 20 treated HMW aggregate is represented by curve having square lines. The Y-axis represents the colorimetric signal at OD492 and the X-axis represents antibody concentration in [ug/ml]. Lectin ELISA of untreated and Tween® 20-treated KNH1144 SOSIP R6 gp140 trimer: Untreated or Tween® 20 treated trimer (containing 10-15% HMW aggregate) were bound to GNA lectin coated ELISA plates and probed with 2G12, b6, b12, and CD4-IgG2. The panels represent their respective binding curves. Antibody affinity to the untreated trimer is represented by the curve having diamond lines. Affinity to the Tween® 20 treated trimer is represented by the curve having square lines. The Y-axis represents the colorimetric signal at OD492 and the X-axis represents antibody concentration in [ug/ml].
ELISA plates were coated overnight at 4° C. with lentil lectin powder from Lens culinaris (L9267, Sigma) at 10 ug/ml concentration. […]

KNH1144 SOSIP R6 HMW aggregate: high molecular weight aggregate species of KNH1144 SOSIP R6 gp140, slower migrating on BN-PAGE
temperature dependence of the Tween 20 effect [1]: temperature independent
antibody binding, Tween 20 treated vs untreated [2]: increased binding
